Data from the domain aggregation screens of Martell et al. (2025).

assay: soluble fraction after stress (log2 fold change); higher = more stays soluble; pooled small domains, quantitative proteomics; conditions: stress: 75 degC
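Also: 20 min heating vs room temperature control held 20 min.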

Point of comparison: “HMPREVKLPPDLLDALEASPEAKAFFLQLSYTHQKEYAQWIEEAKQEATRQRRLEKTVQMLLEGRRT”, “soluble fraction (log2)” value -1.27. Against it:
- HMPQETPIPKSEIQSYDEIWLEPISTDNILRNELRGWYHVKDRWVENEFGNRFYLDTYASKWLAFPS — higher, -0.333
- HMPQKIVIQKGVVIKKRERSDAWQIYITVKGKKPIRKSANTDNVEKAKQMALTLFAEKNYKVENNLPIQ — within 0.2 log units, -1.17
- HMPQLSNEEQKIVDALEGSDGKQINLITVETNIPMARLMSVLFEMEMRGIVKSLNGARYKLN — within 0.2 log units, -1.3
- HMPQTDDSEPLGKYGRMRLAYLKNQRPVLYNQMLLNGTLWPHLQDVQKTAYEWLERTMTTLLDK — higher, 0.0585
- HMPRDQQENIYLLEKGKRLYEEHLGDQRQIIGHRIMIFERILESQDHAQIRRAQSEFAEFLSHYDG — higher, -0.8
- HMPRDYYAVLEVSVSSTPVQIRQAYQRLARRYSPDVNFLDRDTEALFEEIVEAYRVLSNPTARTLYDRG — lower, -4.52
- HMPREQQENVYLLEKAKRLYEEYLGDQRQTIGHALAQFERVLESQDPAAIRRAQKEFGEFLERYDG — higher, -0.0743
- HMPRFDINFKVGEVVTIKGGSFDGQQGEISEIDHEHGKIKVMLEVLGRLTPVEVEHTEIEKI — higher, -0.269
- HMPRKLDDQLQEQIRYLKSNYPRMSAAGIFRQLQDNGSIKHGDVSESTINRYVNLLSIEMKTTT — higher, -0.395
- HMPRNMTFAIRGEYITLDALLKAVGAADSGAQAKHRIAEGEVTVDGVVETRKTRKLRGGETVVVDDLAVVL — higher, -0.734
- HMPRQREVPDVSGWTEQHAKVYLEALGYRVKVIYLEVSSFDKGLVQETSPAKGSKVEEGDTIDLRVSNQE — lower, -2.64
- HMPRSLGADLRAIRKGRRLTLTDMAEALDRSVGWVSQVERDISTPSISDLRRMAEILDVPVSLLFG — lower, -3.17
- HMPSARELLATNIVRLRKEKGWSQEDLALEAGLHRTFVAHVERHARNISLDNIERLANALQVNVHILLL — lower, -3.81
- HMPSEDELAERLRGAIRQGDILNEGRMPPERALAEHFGVSRARLRLALGLLQEDGTIYRRHGQGTFAT — higher, -0.308
- HMPSIGKNILYYRKKRNMTIDELSKKSGVSKSMLSQVEQEKTNPTVVTVWKIARSLDVSINQLLQT — lower, -2.83
- HMPSKKHARWIELEARKFMADNEDAVSDLHELRTRAANFAALKTSTLPVDQHRAIVAGFVARVNELGRRI — higher, -1.02
- HMPSLSPDETVVVDALRQQNDMQINMISVKTNLPIARLSAILFEMELKGVLKPLAGGVYHLL — lower, -2.3
- HMPSPEMLKETEKRKAEEIYRSQINLFIDDYHRLKGQYPLLEDIIDNKKDSIPIEILREISISILKNYFE — higher, -0.802
- HMPSPEVELLEDLLSKTDEAEVEAAFHENQALVNDEFKAMLGSLIQELSKTQEADPEIIARIRFIQKLT — higher, -0.128
- HMPSREDFAYDSIKEAILSGELLPNQKISLSDLANKLGISIIPVNSAVGRLVAEGLVRQDPHHSPYVV — higher, 0.481
- HMPSRPIQVASFSKEDNAKRAAEALAKIGVTATPQKSEKAGKAVWGVVVTGDDAMLQKIKDAGFADAYFL — higher, 0.0515
- HMPSTKDGIKEFLSSGAMKGIGRKTASAIVSRFGIDTLKIIEQEPQRLTEVSGIGKKTAQRIAEAFGKH — higher, -0.26
- HMPSTVRVPDVAETSLSEAKKTIEESGLEVGAIHKVNNDTVKKNHVIKTSPTIGSAKKEGSAIDIYVSKG — higher, -0.0483
- HMPSTVSVPDVAGSSLSEAKTTIKSSGLKVGTVHKVSSDTVESGYVIKTSPTAGSSKKEGSSIDIYVSKG — higher, ≥ 1.04
- HMPTANFPAMAEALKKQYGPPTGEEETSWTHRLGGVFDIKIQSWNTPQGEMVLRSRGAAMDAGML — higher, 0.385
- HMPTEPTARELEVTTLLAQGLSNREIAGALFISEHTVRNHLGHVFSKLGVSSRTQAVVRAGQLGWLR — lower, -2.54
- HMPTKSDLLQWIKDRASKMGGAFTNSGAYALADAGVDGPRALSSEINKLLTYVNWERSVEADDVIRL — higher, -0.455
- HMPTLTPFDVARIENAINPRLNLETAAKLKPWIAAGYTAQETADGTGFSPDTVKKYAAIFRK — higher, -0.0357
- HMPTQTEELRRRIVADVNAGEPGAKLGSERELAERYGTSRSSLRQVLAALQEAGLIDRVIGRSGGIFISH — higher, -0.0502
- HMPTSILEKILNSAAEQFTRYGFKTITMDDIARHAGVSKKTLYQHFETKLDIIVAAVTHFHTMKF — lower, -1.62
- HMPTYEEAKTYLKAAFEHIVAAGRDVGELVEFAFAKSGDAVAPYLRRFLSDVHEGRITIQGLTESAKLAV — higher, 0.292
- HMPVEQVWHIAEAGKTKGPFSRASMGRMSADGALTRDTLVWTAGQDGWKKAADVTALATLFT — higher, 0.0108
- HMPVFYATNRQKTTIHNLKRKKGLDDDAYRATIYSFTHGRTDSSKYMYKYEAAELIQKWLDPE — lower, -1.49
- HMPVGVPGVVYNTDSLNVRKGAGTNYDIVSKLKRGSVIEVLEQTAVDGTVWGRIAEGWVNMEYVSL — higher, -1.04
- HMPVSDLQSALRNTLSKGDATDPAFRQRVYRAAMDALERATGSESDPQRRSEQKQRLIAVIRDMEASYRR — higher, 0.157
- HMPVTKSARQSRIGELIAREPVRSQSELAARLADDGIVVSQGTLSKDLLELGAVRVRTSSGELAYALL — higher, 0.0547
- HMPWLIAVTVDGVNLPRFLRRAGEMGLLLTGVRIRGKHLSAFAREDDVPPLRMMAENGGWRFSVGN — lower, -2.23
- HMPYEHQRAVGALIRRLREQQGWSQRALADWVHMDQSAVSRVETGQRSVTAEELGRFADALHVSTDALVR — higher, -0.263
- HMPYFLKQSNTRSKGLYLQIYHSFYVPGKGSRNKSYKAIGYVSELIKNGIEDPITYAKNLVDELNNNSSTP — lower, -3.82
- HMPYPSPADLARMDELIAWVKDEGRLPRDRSGQRSERSMARWLAARRREAAEGTLDPAYRDGLAQVPGWR — higher, -0.497
- HMPYSAAVTFLDDAKQPMVNYNYRLIAENGIEVSGITDEFGKTQPIQTDQREKVDLYIADLPN — higher, 0.693
- HMQAALEVQASAGVLAPVPPDQRQALLDTLAQDPRPGYQHEAGRVYGFPFGGFEVRFTVSDGLLTVLSAYK — lower, -1.82
- HMQAATQVNIVGLFSNKAVVIINGGKPKTLSVGQTSEGVKLLAADSQTATLQIEGKTQQLGMGQAASVGG — higher, -0.758
- HMQAESLTVVRSAELKADRFLDAATLQTLQTGQVVESLRTESGWVQVRIAGQQGWVRAMNVKGA — within 0.2 log units, -1.1
- HMQAITVNNEGKIFLNTIPVTLEELSSKLESLKSSTPEFPVVIRGDSGSQYQGIMDVLNVVGRLGITQIGL — higher, -0.708
- HMQAKDVEVPDYVGKSFVSIKENNPNDFKFEVKSEYDESKEMGVILDQEPKGGSMKVKSGSTITVTV — higher, 0.156
- HMQASPADLLSDRELEVFQLTGEWKTTRQIAQELHLSVKTIEYYREQIKRKLNLKSAAELTQHATAWVQRG — lower, -2.93
- HMQDAVASEKIQLMSEALHARDTGDLLLAKEKVEKLIALAPNDKNIQALLLTINQSIEDKGL — higher, -0.112
- HMQDIDIVDLKRISELIYQKYNYDFRNYAMSSFKRRVQRIIELKKLTVDGLIKRLNDTPSFINEFLDELTV — higher, -0.014
- HMQDNLKKYMDKLSQRDAELIVYKYLWNMSEKEISEMFHIKQEQVHVYVGRAKKRLFKIIKKEME — higher, -0.425
- HMQDRDKNIEEGRQLVLHEMDRLDLVDEPLHDVARQLNMKAVEDMFAAVGAGDLRLGQIIHQLLKQADTN — higher, -0.215
- HMQDSIYYAQYRINIRNMPSSEGMVISRASVGEALEVLDWQEQWSKVRKQSGVEGYVASRLLTK — lower, -2.34
- HMQDTIDLVIQVNGKLRGQMNVPKDTDRATIEQLAINLENVQKIVAGNAIKKIIIVPGRLINIVVSKNL — lower, -2.78
- HMQDTYQVKLLTNLNIRKSPNGTIVQKGGAKKGIIYTIVETSGTWGRLKSNAGWISVSDKYVTK — lower, -3.58
- HMQDVKRYLVNSNQLNVRTGPGKEFEISESLNKGDAVTLLHKESNGWWEVITSTGQGYVYSSMLTKDPW — higher, -0.735
- HMQDVVERIKKYKQLFSITSEELSKRSGIPLGTLNKILSSSTKSIKTETLAAIAKGLDVSVSDLVGREK — higher, -0.251
- HMQEAGKWLKKLRTERKITLEQLSKKTGLSVGFLSQFERGLTSIAIDTLEKIAAVFNVTIDYFISP — higher, 0.0548
- HMQEEFVAPDVKDGAIVLHKAFGEGTVTKIDKAQKHIRVTFGVGEKTFIFPDAFKQGFLRMKG — higher, 0.303
- HMQEERLTFDTLLGISGIGPRLALAVLSRFTPGSLAAAVDAGDTKAFSAVPGVGNRTASRIILELKGKL — higher, -0.748
- HMQEGPGLVPDFRGQTMREVLRGGQSLGVRVAVDGTGLAVAQTPEPGSPLNKVSQVTVSFRPP — higher, 0.0233
- HMQEINLIGVTGNDLERSALVKLLDGEIIKLSVGDNLNGGRVVDISAVTLTYLKSGQSITLKLPK — lower, -2.9
- HMQELGVISEGKYNIELNMVSWNDREPKYDIRSWAPDHSRMGKGISLTEEEMERLVELWNTRNE — higher, -0.441
- HMQELKWERNYKLVQDYIKQYGVLPSKNTKYANVSIGRWLTNQHELVKEDNLAPERFEKIKELDT — higher, -0.297
- HMQENDLGAVEKIVDDVLHDPKNAQAVADFKAGSEKVLGFLTGQVMKASRGKANPSVVQEVLRQKLKN — higher, -0.314
- HMQENVIIYPNPTKSVIYLSEKVEFILYNILGEIIFIGDNNKIDLNSFDNGVYIFESGNVRTQIIK — higher, 0.0395
- HMQEQIVQGIVKYFDAEKQFGFIAGDDGVDRFFNAKSIQGNAVKTGDRVRFLAISHIRGPRALKISA — within 0.2 log units, -1.24
- HMQEQSSYVGQFGTAATTLRPSGTVELEDGTRIDVVTVGEFIEKGEPVQVVRKDGTWLVVEKRRSK — higher, 0.976
- HMQERKYTVSFNTNGGSTINDQKITSGNVIISPGAPKRSGYTFVGWYYHGQPFDLNTKINQDYVLVAKWIK — lower, -2.49
- HMQETILFGQQKAINNLSSDTGLSENDLDSYLKKRYKKPLYQLTQSEGADIINGFQDGSLSKNSILDYIKP — higher, 0.173
